Results taken from patent publication US20170267768A1 (University of California, published 2017).

Columns and labels:
[1] = target: T1, His6-tagged recombinant human EphA2 protein (human, UniProt P29317 25-534); assay: BLI (Octet Red 96); His6-EphA2 on anti-His sensors; scFv-PEG-DSPE conjugate at 4.0 ug/ml after thermal stress
T1 construct: also called his-tagged recombinant, human EphA2; human EphA2 with c-terminal His6
Description: (§1) A nucleic acid encoding human EphA2 with c-terminal His6 appended was cloned into expression vector pCEP4 (Invitrogen® # V044-50) and transiently expressed in FreeStyle™ 293 cells (Invitrogen® #K900001) following polyethylenenimine transfection. The His6-tagged recombinant human EphA2 protein was purified from the cell culture medium using Ni-NTA Sepharose™ resin (Quiagen®, USA). Anti-His sensors for the fortéBIO® Octet Red 96 system (fortéBIO®-Pall® #18-5116) were coated with his-tagged recombinant, human EphA2 at concentration of 10 μg/ml protein for 300 sec, and a background run was carried out in PBS for 60 sec. For scFv-PEG-DSPE conjugates, the sensors were then incubated with 2.5 μg/ml (Study 1) or 4.0 μg/ml (Study 2) of the conjugate in PBS, pH 7.4, and the slopes of association curves were determined between 3-13 seconds of incubation, corrected for the buffer-only background, and compared across the variants. ScFv-linked liposomes were incubated with the sensors in PBS at 0.025 mM of liposome phospholipid, the slopes of the association curves were determined between 3-20 seconds of incubation, corrected for the buffer-only background, and compared across the variants.
(§2) Results are shown below in Table 6, in which column A gives scFv identifiers; column B indicates percent yield of scFv/lipopolymer linker conjugates; column C gives percent scFv-conjugate (not liposome-bound) EphA2 binding on-rate; column D gives percent scFv-conjugated-liposome EphA2 binding on-rate; and columns E (Study 1) and F (study 2) give percent antigen binding on-rate remaining in the scFv-conjugate (not liposome-bound) following thermal stress.

[2] = target: T1, His6-tagged recombinant human EphA2 …; assay: BLI (Octet Red 96); His6-EphA2 on anti-His sensors; slope of association curve of scFv-PEG-DSPE conjugate; TS1C printed as 100
Description: as §1, §2

[3] = target: Staphylococcus aureus Protein A (Staphylococcus aureus, UniProt P38507 37-477); assay: Protein A binding measured as in Example 1; TS1C is the reference
Protocol: Protein A binding for multiple samples was determined as follows: scFvs expressed by mammalian cells were obtained from cultures by centrifugation at 4000 g for 15 minutes to remove cells. The scFv titer in the supernatant was determined using Fortebio. Protein A binding was assayed using a 96 well Protein A plate (Protein A 96 well protein purification plate (GE Healthcare: Life Sciences, Protein A HP MultiTrap®) which contains Protein A-conjugated resin in wells with porous bottoms, allowing liquid in the wells to be collected from underneath via centrifugation or suction. Each well of the plate was washed with 1×PBS, and supernatant containing 250 μg of protein was loaded into each well. The supernatant is then separated from the Protein A resin using a vacuum manifold (Whatman®) with 10 mbar of pressure and the flow-through from each well separately collected into empty wells of a standard 96 well plate. The wells of the Protein A plate were then washed with 600 μL of 1×PBS (pH 7.6). To elute the resin-bound Ab, 200 μL of 0.1M acetic acid was added to each well and incubated at room temperature for 3-10 minutes. […]
The fold improvement in Protein A binding capacity (as compared to TS1C) was measured as described in Example 1.

[4] = target: T1, His6-tagged recombinant human EphA2 …; assay: BLI (Octet Red 96); His6-EphA2 on anti-His sensors; slope of association curve of scFv-linked liposomes at 0.025 mM phospholipid; TS1C printed as 100
Description: as §1, §2

[5] = target: T1, His6-tagged recombinant human EphA2 …; assay: BLI (Octet Red 96); His6-EphA2 on anti-His sensors; scFv-PEG-DSPE conjugate at 2.5 ug/ml after thermal stress
Description: as §1, §2

[6] = target: T2, human EphA2 on OVCAR-3 and U-251 cells (human, UniProt P29317 24-976); assay: CLIA: scFv-decorated fluorescent NTA(Ni) liposomes on OVCAR-3 and U-251 cells, FACS
T2 construct: whole, on cells; also called EphA2 receptors
Protocol: To test the anti-EphA2 activity of these variant scFvs, the binding and internalization of liposomes externally decorated with these Abs was assayed on cell lines expressing EphA2. A rapid high-throughput Chelated Ligand-induced Internalization Assay (CLIA) (Nielsen et al., BMC immunology, 2006, 7:24) was used to screen anti-EphA2-scFv-targeted liposomes for binding and internalization assessment. Two cell lines that express high levels of EphA2 receptors, OVCAR-3 and U-251, were tested, as well as a murine EphA2-expressing mouse cell line, CT-26 (to test whether cross-reactivity to murine EphA2 was retained by the engineered scFvs). Via nickel-binding by each scFv's c-terminal His6 tag, the scFvs were bound to fluorescently labeled liposomes comprising an NTA(Ni) conjugated lipid (Dil5-NTA liposomes).
Dil5-NTA liposomes were prepared as follows. The NTA conjugated lipid, DOD-Tri-NTA, was synthesized as described in Huang et al., Bioconjugate chemistry, 2006, vol. 17, p. 1592-1600. […] The concentration of liposomal phospholipid was then determined after acid digestion using spectrophotometric phosphomolybdate method.

[7] = target: T3, murine EphA2 on CT-26 cells (mouse, UniProt Q03145 26-977); assay: CLIA: scFv-decorated fluorescent NTA(Ni) liposomes on CT-26 cells, FACS
T3 construct: whole, on cells
Protocol: The concentration of liposomal phospholipid was then determined after acid digestion using spectrophotometric phosphomolybdate method. Prior to incubation with cells the liposomes were diluted to 0.4 mM phospholipid in Hank's Balanced Salt Solution (HBSS), and NiSO₄ was added to 0.1 mM. The hexahistidine scFvs were diluted into cell culture medium (see below) to the concentration of 25 μg/mL of scFv and mixed with equal volume of the liposome solution (“fluorescent NTA-liposome/scFv mixture”).
By measuring fluorescence of the cells prior to and after incubation/wash with imidazole, which disrupts His6/Ni complexes and thereby releases and removes external (but not internalized) histidine-tagged scFv, the percentage of Ab internalized is quantitated. The test cells (human cancer cell lines OVCAR-3 and U-251 and the murine cancer cell line CT-26) were grown in the adherent state in […] cell culture medium supplemented with 10% FBS, 1× penicillin/streptomycin, and L-glutamine, to 90% confluence and harvested using 0.25% trypsin-EDTA. […] The relative amounts of cell-associated liposomes were evaluated by FACS (Cy5 fluorescence channel). The “binding” amount included both cell surface-bound and internalized liposomes and was proportional to cell fluorescence without imidazole wash. […]

T1 sequence (P29317 25-534 limits assumed): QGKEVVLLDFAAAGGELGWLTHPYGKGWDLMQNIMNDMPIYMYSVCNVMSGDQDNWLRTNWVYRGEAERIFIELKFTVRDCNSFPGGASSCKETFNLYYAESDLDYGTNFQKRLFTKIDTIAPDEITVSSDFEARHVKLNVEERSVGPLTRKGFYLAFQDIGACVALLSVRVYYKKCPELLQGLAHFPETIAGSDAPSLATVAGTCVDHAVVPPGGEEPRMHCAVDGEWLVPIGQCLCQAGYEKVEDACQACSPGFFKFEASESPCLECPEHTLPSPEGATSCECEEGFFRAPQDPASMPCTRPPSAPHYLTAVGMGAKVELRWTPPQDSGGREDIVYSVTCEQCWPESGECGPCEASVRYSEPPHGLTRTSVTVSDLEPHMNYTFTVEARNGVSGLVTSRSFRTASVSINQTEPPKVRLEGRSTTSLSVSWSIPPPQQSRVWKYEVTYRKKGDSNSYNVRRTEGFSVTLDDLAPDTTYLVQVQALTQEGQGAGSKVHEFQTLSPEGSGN
T3 sequence (Q03145 26-977): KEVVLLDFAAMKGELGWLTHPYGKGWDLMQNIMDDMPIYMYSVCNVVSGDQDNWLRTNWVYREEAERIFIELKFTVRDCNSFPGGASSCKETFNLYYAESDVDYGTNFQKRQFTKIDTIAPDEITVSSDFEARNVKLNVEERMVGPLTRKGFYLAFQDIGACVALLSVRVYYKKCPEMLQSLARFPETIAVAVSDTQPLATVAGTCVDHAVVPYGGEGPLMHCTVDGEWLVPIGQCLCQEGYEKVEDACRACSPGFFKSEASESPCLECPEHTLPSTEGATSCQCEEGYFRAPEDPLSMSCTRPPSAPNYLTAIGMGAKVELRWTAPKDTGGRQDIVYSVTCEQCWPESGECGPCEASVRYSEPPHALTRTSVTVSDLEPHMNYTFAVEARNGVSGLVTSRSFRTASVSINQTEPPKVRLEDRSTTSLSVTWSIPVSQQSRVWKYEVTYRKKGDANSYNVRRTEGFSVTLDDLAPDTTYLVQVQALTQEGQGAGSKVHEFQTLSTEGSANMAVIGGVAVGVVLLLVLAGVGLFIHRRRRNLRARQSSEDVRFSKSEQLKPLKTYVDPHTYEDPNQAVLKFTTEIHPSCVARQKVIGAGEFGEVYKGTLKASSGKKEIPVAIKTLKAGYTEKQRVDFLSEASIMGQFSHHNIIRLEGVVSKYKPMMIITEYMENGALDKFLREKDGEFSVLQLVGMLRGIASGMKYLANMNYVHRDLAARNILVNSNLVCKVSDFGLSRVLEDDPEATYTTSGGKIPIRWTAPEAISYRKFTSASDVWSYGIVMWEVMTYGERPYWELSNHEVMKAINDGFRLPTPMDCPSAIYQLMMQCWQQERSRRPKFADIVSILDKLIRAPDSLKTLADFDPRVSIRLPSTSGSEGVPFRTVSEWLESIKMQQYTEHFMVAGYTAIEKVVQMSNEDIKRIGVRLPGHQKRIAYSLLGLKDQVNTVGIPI
T2 sequence (P29317 24-976): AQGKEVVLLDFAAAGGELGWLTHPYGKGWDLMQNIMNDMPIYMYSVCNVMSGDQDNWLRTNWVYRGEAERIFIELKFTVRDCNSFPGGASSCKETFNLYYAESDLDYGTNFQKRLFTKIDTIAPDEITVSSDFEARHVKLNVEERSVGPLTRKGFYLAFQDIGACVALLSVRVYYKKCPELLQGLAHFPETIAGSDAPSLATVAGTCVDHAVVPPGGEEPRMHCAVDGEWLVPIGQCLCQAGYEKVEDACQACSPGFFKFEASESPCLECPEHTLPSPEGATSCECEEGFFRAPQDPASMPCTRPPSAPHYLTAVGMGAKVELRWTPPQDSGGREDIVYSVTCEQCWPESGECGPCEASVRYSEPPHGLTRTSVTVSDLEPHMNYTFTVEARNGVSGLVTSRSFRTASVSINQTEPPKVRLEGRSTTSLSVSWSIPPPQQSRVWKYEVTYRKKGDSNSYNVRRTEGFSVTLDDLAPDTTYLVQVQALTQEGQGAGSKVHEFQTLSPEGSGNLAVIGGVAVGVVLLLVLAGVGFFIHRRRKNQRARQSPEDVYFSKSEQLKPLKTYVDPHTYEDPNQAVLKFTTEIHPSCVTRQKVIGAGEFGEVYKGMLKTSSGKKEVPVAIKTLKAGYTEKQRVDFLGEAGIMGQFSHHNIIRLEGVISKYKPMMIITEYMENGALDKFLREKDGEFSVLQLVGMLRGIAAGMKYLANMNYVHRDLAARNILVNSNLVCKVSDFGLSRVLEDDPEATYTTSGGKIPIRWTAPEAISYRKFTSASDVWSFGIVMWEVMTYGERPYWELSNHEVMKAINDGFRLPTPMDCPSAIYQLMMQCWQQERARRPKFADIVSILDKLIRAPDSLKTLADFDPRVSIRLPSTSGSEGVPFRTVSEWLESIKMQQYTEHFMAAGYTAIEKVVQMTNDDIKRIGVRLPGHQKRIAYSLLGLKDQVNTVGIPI

| Binder | percent antigen binding on-rate remaining in the scFv-conjugate following thermal stress (Study 2) [1] | percent scFv-conjugate (not liposome-bound) EphA2 binding on-rate [2] | Fold Improvement in Protein A Binding Capacity [3] | percent scFv-conjugated-liposome EphA2 binding on-rate [4] | percent antigen binding on-rate remaining in the scFv-conjugate following thermal stress (Study 1) [5] | binding result [6] | binding result [7] |
| --- | --- | --- | --- | --- | --- | --- | --- |
| TS1C (scFv, also called parental clone TS1 (C form)) scFv: QVQLVQSGGGLVQPGGSLRLSCAASGFTFSSYAMHWVRQAPGKGLEWVAVISYDGSNKYYADSVKGRFTISRDNSKNTLYLQMNSLRAEDTAVYYCARASVGATGPFDIWGQGTLVTVSSASTGGGGSGGGGSGGGGSGGGGSSSELTQPPSVSVAPGQTVTITCQGDSLRSYYASWYQQKPGTAPKLLIYGENNRPSGVPDRFSGSSSGTSASLTITGAQAEDEADYYCNSRDSSGTHLTVFGGGTKLTVLGGGSGGC | 13% | 100% | 1 fold | 100% | 25.2% |  |  |
| scFv TS1 (scFv) scFv: QVQLVQSGGGLVQPGGSLRLSCAASGFTFSSYAMHWVRQAPGKGLEWVAVISYDGSNKYYADSVKGRFTISRDNSKNTLYLQMNSLRAEDTAVYYCARASVGATGPFDIWGQGTLVTVSSASTGGGGSGGGGSGGGGSGGGGSSSELTQPPSVSVAPGQTVTITCQGDSLRSYYASWYQQKPGTAPKLLIYGENNRPSGVPDRFSGSSSGTSASLTITGAQAEDEADYYCNSRDSSGTHLTVFGGGTKLTVLG |  |  |  |  |  | binds | binds |
| scFv-12 (scFv) scFv: QVQLVQSGGGLVQPGGSLRLSCAASGFTFSSYAMHWVRQAPGKGLEWVAGISHPGDNTYYADSVKGRFTISRDNSKNTLYLQMNSLRAEDTAVYYCARASVGATGPFDIWGQGTLVTVSSASTGGGGSGGGGSGGGGSGGGGSSSELTQPPSVSVAPGQTVTITCQGDSLRSYYASWYQQKPGTAPKLLIYGENNRPSGVPDRFSGSSSGTSASLTITGAQAEDEADYYCNSRDSSGTHLTVFGGGTKLTVLG |  |  |  |  |  |  | no binding |
